Test results taken from IntAct's records for PubMed 15047801.

B1: Zinc finger CCCH domain-containing protein 7B (Homo sapiens), Q9UGR2 (parent)
chain: MERQKRKADIEKGLQFIQSTLPLKQEEYEAFLLKLVQNLFAEGNDLFREKDYKQALVQYMEGLNVADYAASDQVALPRELLCKLHVNRAACYFTMGLYEKALEDSEKALGLDSESIRALFRKARALNELGRHKEAYECSSRCSLALPHDESVTQLGQELAQKLGLRVRKAYKRPQELETFSLLSNGTAAGVADQGTSNGLGSIDDIETDCYVDPRGSPALLPSTPTMPLFPHVLDLLAPLDSSRTLPSTDSLDDFSDGDVFGPELDTLLDSLSLVQGGLSGSGVPSELPQLIPVFPGGTPLLPPVVGGSIPVSSPLPPASFGLVMDPSKKLAASVLDALDPPGPTLDPLDLLPYSETRLDALDSFGSTRGSLDKPDSFMEETNSQDHRPPSGAQKPAPSPEPCMPNTALLIKNPLAATHEFKQACQLCYPKTGPRAGDYTYREGLEHKCKRDILLGRLRSSEDQTWKRIRPRPTKTSFVGSYYLCKDMINKQDCKYGDNCTFAYHQEEIDVWTEERKGTLNRDLLFDPLGGVKRGSLTIAKLLKEHQGIFTFLCEICFDSKPRIISKGTKDSPSVCSNLAAKHSFYNNKCLVHIVRSTSLKYSKIRQFQEHFQFDVCRHEVRYGCLREDSCHFAHSFIELKVWLLQQYSGMTHEDIVQESKKYWQQMEAHAGKASSSMGAPRTHGPSTFDLQMKFVCGQCWRNGQVVEPDKDLKYCSAKARHCWTKERRVLLVMSKAKRKWVSVRPLPSIRNFPQQYDLCIHAQNGRKCQYVGNCSFAHSPEERDMWTFMKENKILDMQQTYDMWLKKHNPGKPGEGTPISSREGEKQIQMPTDYADIMMGYHCWLCGKNSNSKKQWQQHIQSEKHKEKVFTSDSDASGWAFRFPMGEFRLCDRLQKGKACPDGDKCRCAHGQEELNEWLDRREVLKQKLAKARKDMLLCPRDDDFGKYNFLLQEDGDLAGATPEAPAAAATATTGE

Variants of: B1
Conditions: with nsp3_rots4 nsp3, Q00721
Sequence of nsp3_rots4 nsp3, Q00721 (Q00721 whole entry): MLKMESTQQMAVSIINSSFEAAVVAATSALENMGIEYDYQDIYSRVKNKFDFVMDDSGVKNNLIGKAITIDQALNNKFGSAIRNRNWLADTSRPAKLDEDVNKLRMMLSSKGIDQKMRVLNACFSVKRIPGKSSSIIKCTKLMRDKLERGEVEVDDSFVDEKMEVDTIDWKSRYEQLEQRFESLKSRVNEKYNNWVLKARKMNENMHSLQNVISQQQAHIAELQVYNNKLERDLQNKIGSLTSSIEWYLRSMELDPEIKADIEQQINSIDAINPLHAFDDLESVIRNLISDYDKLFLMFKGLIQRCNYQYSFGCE

Question: L252A;D253A;D254A was tested. Which “effect of a mutation on the interaction” value did it give?
Answer: decreasing interaction
